Patent US20050282743A1, “Molecular interactions in cells” (Arbor Vita Corporation, priority 2001, published 2005)
Ends that are not written are not given here. * marks the point of attachment. Biotin = O=C1N[C@H]2[C@H](CS[C@H]2CCCCC(=O)*)N1

Assays:
Assay in all cases: G' assay (10 uM PL peptide), results of TABLE 7 and TABLE 12
Type in all cases: binding
[1] = biological target: T1, PDZ protein (GST-PDZ fusion) (Homo sapiens, UniProt O15018); settings: PDZ AIPC, PDZ Domain 1
T1 construct: made in house; host or cells: E. coli (DH5alpha, BL21 or JM109)
Description: (§1) Each page of TABLE 7 and 12 includes seven columns. The columns in each table are numbered from left to right such that the left-most column in each table is column 1 and the right-most column in each table is column 7. Thus, the first column in each table is labeled “AVC ID”; this column simply lists an internal reference number used to refer to the carboxyl-terminal amino acids of the PL proteins listed in the second column. […] All PL peptides were biotinylated at the amino-terminus and the sequences of these PL peptides are presented in TABLE 8 (see end of specification).
(§2) This column provides the gene name for the PDZ portion of the GST-PDZ fusion that interacts with the PDZ-ligand to the left. For PDZ domain-containing proteins with multiple domains, the domain number is listed to the right of the PDZ (i.e., in column 5 labeled “PDZ Domain”), and indicates the PDZ domain number when numbered from the amino-terminus to the carboxy-terminus.
(§3) The third column labeled “Peptide Optimal Concentration” in the tables is a number reflective of the binding interaction between the PL protein and PDZ protein. […] The column labeled “Protein Optimal Concentration” refers to the protein concentration used to assay PL interaction (in ug/ml); a ‘0’ is indicative of 5 ug/ml protein concentration; any other value represents the concentration (in ug/ml) used to determine the dissociation constant for a given interaction.
(§4) Finally, the seventh column labeled “Classification” is another measure of the level of binding. In particular, it provides an absorbance value at 450 nm which indicates the amount of PL peptide bound to the PDZ protein. The following numerical values have the following meanings: ‘1’—A450 nm 0-1; ‘2’—A450 nm 1-2; ‘3’—A450 nm 2-3; ‘4’—A450 nm 3-4; ‘5’—A450 nm of 4 more than 2× repeated; ‘0’—A450 nm 0, i.e., not found to interact. Thus, higher numbers indicate stronger interactions.
(§5) For convenience, the assay conditions described in this section are referred to as the “G′ assay” and the “G″ assay,” with the specific conditions described in the preceding section on G assays being referred to as the “G^0 assay.” The “G′ assay” is identical to the “G^0 assay” except at step (2) the peptide concentration is 10 uM instead of 20 uM.

[2] = biological target: T2, PDZ protein (GST-PDZ fusion) (Homo sapiens, UniProt Q12923); settings: PDZ PTPL-1, PDZ Domain 4
T2 construct: made in house; host or cells: E. coli (DH5alpha, BL21 or JM109)
Description: as §1, §2, §3, §4, §5

[3] = biological target: T3, PDZ protein (GST-PDZ fusion) (Homo sapiens, UniProt Q13796); settings: PDZ hAPXL, PDZ Domain 1
T3 construct: made in house; host or cells: E. coli (DH5alpha, BL21 or JM109)
T3 sequence (Q13796 whole entry, the tested form may be a part): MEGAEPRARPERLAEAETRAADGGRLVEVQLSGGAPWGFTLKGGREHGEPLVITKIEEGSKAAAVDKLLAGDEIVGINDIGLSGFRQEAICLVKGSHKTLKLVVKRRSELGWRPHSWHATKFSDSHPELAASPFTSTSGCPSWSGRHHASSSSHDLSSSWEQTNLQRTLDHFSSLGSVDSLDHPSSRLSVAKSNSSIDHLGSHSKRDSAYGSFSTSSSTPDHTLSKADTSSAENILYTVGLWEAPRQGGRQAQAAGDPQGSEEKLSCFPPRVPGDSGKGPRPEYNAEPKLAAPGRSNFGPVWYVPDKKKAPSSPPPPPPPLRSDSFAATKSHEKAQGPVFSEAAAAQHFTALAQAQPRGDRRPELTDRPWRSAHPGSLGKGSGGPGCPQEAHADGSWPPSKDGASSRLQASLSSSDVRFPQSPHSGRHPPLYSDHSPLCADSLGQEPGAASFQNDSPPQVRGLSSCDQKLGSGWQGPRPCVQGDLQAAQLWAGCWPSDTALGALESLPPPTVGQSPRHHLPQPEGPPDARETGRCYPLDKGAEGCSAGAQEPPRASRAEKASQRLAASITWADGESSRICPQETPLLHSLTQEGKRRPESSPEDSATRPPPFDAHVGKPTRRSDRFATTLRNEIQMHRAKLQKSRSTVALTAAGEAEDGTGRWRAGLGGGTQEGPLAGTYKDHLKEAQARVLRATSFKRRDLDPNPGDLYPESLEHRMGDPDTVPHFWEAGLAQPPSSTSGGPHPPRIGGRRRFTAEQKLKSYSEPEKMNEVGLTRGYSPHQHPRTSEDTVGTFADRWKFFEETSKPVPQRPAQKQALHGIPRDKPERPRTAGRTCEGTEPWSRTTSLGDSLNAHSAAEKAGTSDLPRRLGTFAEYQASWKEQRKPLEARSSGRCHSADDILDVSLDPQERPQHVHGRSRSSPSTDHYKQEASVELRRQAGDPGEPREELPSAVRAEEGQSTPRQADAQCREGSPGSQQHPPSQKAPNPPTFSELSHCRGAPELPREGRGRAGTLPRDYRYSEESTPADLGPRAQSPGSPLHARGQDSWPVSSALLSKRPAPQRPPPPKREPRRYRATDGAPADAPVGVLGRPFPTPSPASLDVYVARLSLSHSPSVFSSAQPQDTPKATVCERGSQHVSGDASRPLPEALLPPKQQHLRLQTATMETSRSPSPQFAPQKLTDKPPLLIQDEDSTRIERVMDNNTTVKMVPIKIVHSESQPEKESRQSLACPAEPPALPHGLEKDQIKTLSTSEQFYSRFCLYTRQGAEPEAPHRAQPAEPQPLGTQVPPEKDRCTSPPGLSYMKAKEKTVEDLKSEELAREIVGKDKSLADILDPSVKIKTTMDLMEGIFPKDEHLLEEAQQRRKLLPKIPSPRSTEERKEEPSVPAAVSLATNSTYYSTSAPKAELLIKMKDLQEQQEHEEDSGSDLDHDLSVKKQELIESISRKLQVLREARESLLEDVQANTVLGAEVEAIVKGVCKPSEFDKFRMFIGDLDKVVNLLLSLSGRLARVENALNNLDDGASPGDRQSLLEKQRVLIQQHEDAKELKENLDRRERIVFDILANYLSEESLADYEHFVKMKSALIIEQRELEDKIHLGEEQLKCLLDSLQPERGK
Description: as §1, §2, §3, §4, §5

[4] = biological target: T4, PDZ protein (GST-PDZ fusion) (Homo sapiens, UniProt Q6P0Q8)
T4 construct: made in house; host or cells: E. coli (DH5alpha, BL21 or JM109)
T4 sequence (Q6P0Q8 whole entry, the tested form may be a part): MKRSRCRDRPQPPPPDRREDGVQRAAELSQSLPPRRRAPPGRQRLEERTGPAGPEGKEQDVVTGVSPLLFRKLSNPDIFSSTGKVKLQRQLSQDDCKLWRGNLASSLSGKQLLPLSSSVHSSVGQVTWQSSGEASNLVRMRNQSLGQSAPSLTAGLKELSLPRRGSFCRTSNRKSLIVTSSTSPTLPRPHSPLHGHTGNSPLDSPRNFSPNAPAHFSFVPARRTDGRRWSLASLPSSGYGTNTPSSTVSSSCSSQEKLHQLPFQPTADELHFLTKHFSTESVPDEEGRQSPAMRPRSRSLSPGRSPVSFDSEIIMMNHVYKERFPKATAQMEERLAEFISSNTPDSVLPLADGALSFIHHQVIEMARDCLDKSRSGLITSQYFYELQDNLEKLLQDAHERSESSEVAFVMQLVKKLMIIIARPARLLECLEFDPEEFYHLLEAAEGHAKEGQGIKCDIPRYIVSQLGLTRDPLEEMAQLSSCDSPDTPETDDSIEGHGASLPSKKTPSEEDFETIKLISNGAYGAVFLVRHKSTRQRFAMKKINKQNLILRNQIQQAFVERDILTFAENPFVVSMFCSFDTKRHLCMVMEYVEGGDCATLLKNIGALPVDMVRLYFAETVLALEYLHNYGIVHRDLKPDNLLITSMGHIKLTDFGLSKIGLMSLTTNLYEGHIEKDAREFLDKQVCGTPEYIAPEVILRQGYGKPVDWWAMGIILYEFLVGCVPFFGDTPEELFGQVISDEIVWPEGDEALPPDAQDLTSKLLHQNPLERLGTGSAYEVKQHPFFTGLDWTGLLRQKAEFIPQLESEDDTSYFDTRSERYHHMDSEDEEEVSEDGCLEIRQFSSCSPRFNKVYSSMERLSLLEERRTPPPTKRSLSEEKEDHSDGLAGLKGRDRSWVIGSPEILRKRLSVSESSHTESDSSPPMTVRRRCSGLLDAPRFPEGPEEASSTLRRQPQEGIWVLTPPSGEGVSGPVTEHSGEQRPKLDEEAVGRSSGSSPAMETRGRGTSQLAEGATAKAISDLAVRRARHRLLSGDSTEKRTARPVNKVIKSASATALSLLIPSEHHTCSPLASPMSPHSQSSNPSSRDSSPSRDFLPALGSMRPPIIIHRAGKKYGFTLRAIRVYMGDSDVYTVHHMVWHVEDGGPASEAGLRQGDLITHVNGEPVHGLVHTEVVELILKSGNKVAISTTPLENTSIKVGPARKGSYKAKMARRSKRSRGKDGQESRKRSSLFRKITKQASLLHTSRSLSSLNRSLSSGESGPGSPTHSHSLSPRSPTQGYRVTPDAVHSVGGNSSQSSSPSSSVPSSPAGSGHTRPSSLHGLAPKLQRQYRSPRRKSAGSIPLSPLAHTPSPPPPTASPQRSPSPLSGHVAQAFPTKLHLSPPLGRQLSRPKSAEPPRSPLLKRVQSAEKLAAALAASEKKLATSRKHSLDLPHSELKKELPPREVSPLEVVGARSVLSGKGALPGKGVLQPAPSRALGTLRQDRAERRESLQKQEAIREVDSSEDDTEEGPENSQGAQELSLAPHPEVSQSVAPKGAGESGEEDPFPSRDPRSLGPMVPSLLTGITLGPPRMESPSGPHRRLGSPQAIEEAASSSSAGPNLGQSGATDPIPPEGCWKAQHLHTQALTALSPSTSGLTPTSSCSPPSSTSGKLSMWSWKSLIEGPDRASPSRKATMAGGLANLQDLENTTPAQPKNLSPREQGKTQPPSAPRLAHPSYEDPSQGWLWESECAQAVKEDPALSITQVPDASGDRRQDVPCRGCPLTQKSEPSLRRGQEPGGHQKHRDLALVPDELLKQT
Description: as §1, §2, §3, §4, §5

[5] = biological target: T5, PDZ protein (GST-PDZ fusion) (Homo sapiens, UniProt Q8TEW0); settings: PDZ PAR3, PDZ Domain 3
T5 construct: made in house; host or cells: E. coli (DH5alpha, BL21 or JM109)
T5 sequence (Q8TEW0 whole entry, the tested form may be a part): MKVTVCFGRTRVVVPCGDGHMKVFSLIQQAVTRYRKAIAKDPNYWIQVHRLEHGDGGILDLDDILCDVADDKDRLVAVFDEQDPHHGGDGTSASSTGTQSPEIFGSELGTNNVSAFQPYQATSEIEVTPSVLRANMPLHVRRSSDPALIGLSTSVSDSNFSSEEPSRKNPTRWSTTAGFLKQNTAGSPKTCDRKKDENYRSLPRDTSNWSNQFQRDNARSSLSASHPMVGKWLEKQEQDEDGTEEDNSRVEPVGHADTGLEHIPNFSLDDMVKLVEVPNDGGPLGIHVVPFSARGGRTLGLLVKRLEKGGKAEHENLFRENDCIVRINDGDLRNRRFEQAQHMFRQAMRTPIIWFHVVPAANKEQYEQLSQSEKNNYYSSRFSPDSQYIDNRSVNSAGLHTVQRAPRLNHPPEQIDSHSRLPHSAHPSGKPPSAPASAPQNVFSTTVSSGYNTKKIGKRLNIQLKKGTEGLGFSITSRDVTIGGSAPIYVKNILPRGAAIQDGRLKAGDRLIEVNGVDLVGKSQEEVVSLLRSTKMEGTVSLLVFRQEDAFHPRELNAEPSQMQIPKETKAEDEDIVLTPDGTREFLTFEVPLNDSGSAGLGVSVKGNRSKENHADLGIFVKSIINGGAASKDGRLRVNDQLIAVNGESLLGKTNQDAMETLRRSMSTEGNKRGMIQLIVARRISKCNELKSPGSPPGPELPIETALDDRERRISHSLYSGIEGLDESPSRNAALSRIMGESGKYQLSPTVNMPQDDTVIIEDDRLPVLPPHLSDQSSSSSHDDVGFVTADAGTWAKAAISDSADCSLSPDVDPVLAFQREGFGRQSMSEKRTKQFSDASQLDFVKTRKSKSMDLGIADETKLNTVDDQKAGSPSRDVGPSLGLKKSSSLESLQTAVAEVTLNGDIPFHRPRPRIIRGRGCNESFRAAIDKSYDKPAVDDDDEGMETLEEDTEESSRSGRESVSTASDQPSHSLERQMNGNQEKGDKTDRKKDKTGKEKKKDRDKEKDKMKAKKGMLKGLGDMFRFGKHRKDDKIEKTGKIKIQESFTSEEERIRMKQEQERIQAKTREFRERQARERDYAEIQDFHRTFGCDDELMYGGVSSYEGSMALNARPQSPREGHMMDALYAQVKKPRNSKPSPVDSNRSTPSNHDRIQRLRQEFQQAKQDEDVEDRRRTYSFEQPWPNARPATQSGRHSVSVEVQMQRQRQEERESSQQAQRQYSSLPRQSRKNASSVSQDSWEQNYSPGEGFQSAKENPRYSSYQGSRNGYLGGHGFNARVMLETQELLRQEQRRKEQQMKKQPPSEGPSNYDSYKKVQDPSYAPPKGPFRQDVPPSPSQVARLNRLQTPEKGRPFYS
Description: as §1, §2, §3, §4, §5

[6] = biological target: T6, PDZ protein (GST-PDZ fusion) (Homo sapiens, UniProt O75970); settings: PDZ MUPP-1, PDZ Domain 11
T6 construct: made in house; host or cells: E. coli (DH5alpha, BL21 or JM109)
Description: as §1, §2, §3, §4, §5

[7] = biological target: T7, PDZ protein (GST-PDZ fusion) (Homo sapiens, UniProt Q02410); settings: PDZ Mint 1, PDZ Domain 2
T7 construct: made in house; host or cells: E. coli (DH5alpha, BL21 or JM109)
T7 sequence (Q02410 1-837): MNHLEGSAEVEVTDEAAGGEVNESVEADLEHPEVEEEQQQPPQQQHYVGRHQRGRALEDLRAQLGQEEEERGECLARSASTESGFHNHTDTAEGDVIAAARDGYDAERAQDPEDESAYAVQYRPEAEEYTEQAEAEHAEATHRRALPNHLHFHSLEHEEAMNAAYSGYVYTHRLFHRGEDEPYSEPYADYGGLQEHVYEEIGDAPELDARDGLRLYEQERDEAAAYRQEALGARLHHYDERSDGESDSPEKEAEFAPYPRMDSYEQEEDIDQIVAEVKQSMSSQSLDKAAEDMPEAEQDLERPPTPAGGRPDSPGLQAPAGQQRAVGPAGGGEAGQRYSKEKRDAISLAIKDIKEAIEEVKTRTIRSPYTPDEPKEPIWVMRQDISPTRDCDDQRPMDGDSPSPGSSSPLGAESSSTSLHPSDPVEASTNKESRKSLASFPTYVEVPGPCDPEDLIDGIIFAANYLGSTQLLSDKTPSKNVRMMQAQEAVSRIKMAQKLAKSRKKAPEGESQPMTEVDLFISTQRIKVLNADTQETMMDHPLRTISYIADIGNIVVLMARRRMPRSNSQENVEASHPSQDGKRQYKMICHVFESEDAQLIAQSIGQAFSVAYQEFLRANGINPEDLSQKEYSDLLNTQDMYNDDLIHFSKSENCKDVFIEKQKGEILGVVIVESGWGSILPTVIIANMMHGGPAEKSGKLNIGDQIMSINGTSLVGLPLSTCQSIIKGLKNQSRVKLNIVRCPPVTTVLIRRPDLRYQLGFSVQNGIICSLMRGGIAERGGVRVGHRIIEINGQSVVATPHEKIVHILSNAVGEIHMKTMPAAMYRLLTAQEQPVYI
Description: as §1, §2, §3, §4, §5

[8] = biological target: T8, PDZ protein (GST-PDZ fusion) (Homo sapiens, UniProt Q9C0E4); settings: PDZ KIAA1719, PDZ Domain 6
T8 construct: made in house; host or cells: E. coli (DH5alpha, BL21 or JM109)
Description: as §1, §2, §3, §4, §5

[9] = biological target: T9, PDZ protein (GST-PDZ fusion) (Homo sapiens, UniProt Q9NZN5); settings: PDZ KIAA0382, PDZ Domain 1
T9 construct: made in house; host or cells: E. coli (DH5alpha, BL21 or JM109)
Description: as §1, §2, §3, §4, §5

[10] = biological target: T10, PDZ protein (GST-PDZ fusion) (Homo sapiens, UniProt Q12959); settings: PDZ DLG1, PDZ Domain 2
T10 construct: made in house; host or cells: E. coli (DH5alpha, BL21 or JM109)
Description: as §1, §2, §3, §4, §5

[11] = biological target: T11, PDZ protein (GST-PDZ fusion) (Homo sapiens, UniProt Q5TCQ9); settings: PDZ KIAA1634, PDZ Domain 1
T11 construct: made in house; host or cells: E. coli (DH5alpha, BL21 or JM109)
T11 sequence (Q5TCQ9 1-1481): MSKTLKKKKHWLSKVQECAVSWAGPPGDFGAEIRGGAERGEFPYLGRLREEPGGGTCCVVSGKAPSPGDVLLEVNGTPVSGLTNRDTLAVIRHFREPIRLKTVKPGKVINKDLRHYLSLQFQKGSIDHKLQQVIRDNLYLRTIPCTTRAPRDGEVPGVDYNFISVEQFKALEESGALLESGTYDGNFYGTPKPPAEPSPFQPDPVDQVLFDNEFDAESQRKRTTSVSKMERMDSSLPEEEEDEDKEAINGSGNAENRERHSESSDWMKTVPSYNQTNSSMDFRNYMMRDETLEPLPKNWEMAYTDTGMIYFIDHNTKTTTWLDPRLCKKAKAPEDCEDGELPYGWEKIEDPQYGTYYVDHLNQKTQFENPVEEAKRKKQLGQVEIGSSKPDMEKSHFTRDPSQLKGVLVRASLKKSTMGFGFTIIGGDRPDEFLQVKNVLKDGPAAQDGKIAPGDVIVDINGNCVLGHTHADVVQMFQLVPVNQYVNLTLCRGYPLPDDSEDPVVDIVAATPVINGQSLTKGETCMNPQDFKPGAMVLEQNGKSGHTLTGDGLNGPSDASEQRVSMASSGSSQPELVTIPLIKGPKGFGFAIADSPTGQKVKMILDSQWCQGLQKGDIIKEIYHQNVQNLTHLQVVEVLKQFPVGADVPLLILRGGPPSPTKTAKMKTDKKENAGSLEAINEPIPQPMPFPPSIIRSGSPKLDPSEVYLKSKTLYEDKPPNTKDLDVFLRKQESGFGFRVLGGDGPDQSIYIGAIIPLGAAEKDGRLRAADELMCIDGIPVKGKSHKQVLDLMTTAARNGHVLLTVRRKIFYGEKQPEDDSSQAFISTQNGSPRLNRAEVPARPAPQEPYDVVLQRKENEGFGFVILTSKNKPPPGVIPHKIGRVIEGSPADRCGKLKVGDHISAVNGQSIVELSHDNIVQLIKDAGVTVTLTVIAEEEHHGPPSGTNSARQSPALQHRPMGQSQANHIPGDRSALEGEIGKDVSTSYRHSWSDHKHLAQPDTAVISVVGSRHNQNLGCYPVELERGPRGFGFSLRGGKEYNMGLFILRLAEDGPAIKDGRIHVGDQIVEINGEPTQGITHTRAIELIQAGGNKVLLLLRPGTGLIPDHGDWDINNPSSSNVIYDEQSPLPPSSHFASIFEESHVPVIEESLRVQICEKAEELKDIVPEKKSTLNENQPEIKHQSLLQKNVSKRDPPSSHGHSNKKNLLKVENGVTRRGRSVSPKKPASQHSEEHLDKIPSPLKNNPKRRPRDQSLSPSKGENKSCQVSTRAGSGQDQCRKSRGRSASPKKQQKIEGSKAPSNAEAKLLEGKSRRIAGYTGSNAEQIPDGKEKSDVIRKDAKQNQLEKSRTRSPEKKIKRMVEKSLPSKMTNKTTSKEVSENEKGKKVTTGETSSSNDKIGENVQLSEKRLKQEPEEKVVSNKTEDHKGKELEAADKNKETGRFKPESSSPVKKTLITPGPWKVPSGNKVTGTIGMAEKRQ
Description: as §1, §2, §3, §4, §5

[12] = biological target: T12, PDZ protein (GST-PDZ fusion) (Homo sapiens, UniProt Q9Y2H9); settings: PDZ KIAA0973, PDZ Domain 1
T12 construct: made in house; host or cells: E. coli (DH5alpha, BL21 or JM109)
Description: as §1, §2, §3, §4, §5

“LLNVLQRQELGDGLDDEIAV (Biotin-LLNVLQRQELGDGLDDEIAV)” was tested, and the Classification [1] was 1 (A450 nm 0-1), the Classification [2] was 1 (A450 nm 0-1) and the Classification [3] was 1 (A450 nm 0-1). For the same substance, the Classification ([4]; PDZ KIAA0807(S), PDZ Domain 1) was 1 (A450 nm 0-1), the Classification ([4]; PDZ KIAA807, PDZ Domain not given) was 1 (A450 nm 0-1) and the Classification [5] was 1 (A450 nm 0-1).

“RIAYSLLGLKDQVNTVGIPI (Biotin-RIAYSLLGLKDQVNTVGIPI) [ephrin A2]” was tested, and the Classification [6] was 1 (A450 nm 0-1), the Classification [7] was 1 (A450 nm 0-1) and the Classification [8] was 1 (A450 nm 0-1). For the same substance, the Classification [9] was 1 (A450 nm 0-1).

With “PTR2_HUMAN (Biotin-RPMESNPDTEGAQGETEDVL)” the Classification [3] was 1 (A450 nm 0-1) and the Classification [5] was 1 (A450 nm 0-1).

For “VDPNSPAAKKKYVSYNNLVI [GLUR7 (metabotropic glutamate receptor)]”, the Classification [10] was 1 (A450 nm 0-1), the Classification [11] was 1 (A450 nm 0-1) and the Classification [5] was 2 (A450 nm 1-2).

In the case of “NSYVRDDAIFIKAIVDLTGL (Biotin-NSYVRDDAIFIKAIVDLTGL) [TRAF2]”, the Classification ([4]; PDZ KIAA807) is reported as 2 (A450 nm 1-2), the Classification ([4]; PDZ KIAA0807(S), PDZ Domain 1) is reported as 4 (A450 nm 3-4) and the Classification [12] is reported as 1 (A450 nm 0-1).

For “QGDPALQDAGDSSRKEYFI (Biotin-QGDPALQDAGDSSRKEYFI) [Glycophorin C]”, the Classification [5] was 2 (A450 nm 1-2) and the Classification [8] was 1 (A450 nm 0-1).
